T1: human TMEFF1 extracellular domain recombinant protein (plasmid BBP377, S40-V330, C-terminal 8xHis) (human, UniProt Q8IYR6 40-330)
T1 construct: Secreted from CHO cells with a non-native signal peptide (not part of the mature protein); also called hTMEFF1 ECD; hTMEFF1-ECD
T1 sequence: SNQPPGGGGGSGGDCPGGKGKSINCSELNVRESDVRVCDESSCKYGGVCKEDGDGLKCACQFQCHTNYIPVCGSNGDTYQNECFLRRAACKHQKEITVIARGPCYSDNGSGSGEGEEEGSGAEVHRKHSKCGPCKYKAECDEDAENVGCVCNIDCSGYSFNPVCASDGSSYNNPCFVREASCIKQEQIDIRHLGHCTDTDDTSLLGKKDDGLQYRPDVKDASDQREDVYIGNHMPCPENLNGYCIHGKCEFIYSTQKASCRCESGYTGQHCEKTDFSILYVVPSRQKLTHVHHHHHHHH

B1: 27G5_56A2 (antibody, V domains shown)
VH: QVQLQESGPGLVKPSETLSLTCAVSDYSISSGYYWGWIRQPPGKGLEWIGSIYHSGSTYYNPSLKSRVTISVDMSKNQFSLKLSSVTAADTAVYYCARDRDSVSWNGGRDYYYYGMDVWGQGTTVTVSS
VL: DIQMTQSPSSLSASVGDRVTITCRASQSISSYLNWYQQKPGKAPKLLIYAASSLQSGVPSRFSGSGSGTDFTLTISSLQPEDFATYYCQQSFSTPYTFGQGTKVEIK
B2: 43B2_56A6 (antibody, human IgG1, V domains shown)
VH: EVQLLESGGGLVQPGGSLRLSCAASGFTFSSYAMSWVRQAPGKGLEWVSTISGSGDSTYYADSVKGRFTISRDNSKNTLYLQMNSLRAEDTAIYYCAKFGVRGVIITNWFDPWGQGTLVTVSS
VL: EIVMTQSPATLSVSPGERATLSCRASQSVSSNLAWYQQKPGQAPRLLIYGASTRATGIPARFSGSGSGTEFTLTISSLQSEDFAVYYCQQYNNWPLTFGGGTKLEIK
B3: 50B4_56B2 (antibody, human IgG1, V domains shown)
VH: EVQLLESGGGLVQPGGSLRLSCAASGFTFSSYAMSWVRQAPGKGLEWVSTISGSGDSTYYADSVKGRFTISRDNSKNTLYLQMNSLRVEDTAIYYCAKFGVRGVIITNWFDPWGQGTLVTVSS
VL: EIVMTQSPATLSVSPGERATLSCRASQSVSSNLAWYQQKPGQVPRLLIYGASTRATGIPARFSGSGSGTEFTLTISSLQSEDFAVYYCQQYNNWPLTFGGGTKVEIK
B4: 34E1_56A4 (antibody, human IgG1, V domains shown)
VH: QVQLVESGGGVVQPGRSLRLSCAASGLTFSRYAMHWVRQAPGKGLEWVAVIWYDGSNKYYADSVKGRFTISRDTSKNTLYLQMNSLRAEDTAVYYCAREGLLWFGGMDVWGQGTTVTVSS
VL: DIVLTQSPLSLPVTPGEPASISCRSSQSLLHSNGYNYLHWYLQKPGQSPQLLIYLGSNRASGVPDRFSGSGSGTDFTLKISRVEAEDVGLYYCMQALQTPYTFGQGTKLEIK
B5: 6C11 (antibody, human IgG1, V domains shown)
VH: QVQLQQSGPGLVKPSQTLSLTCAISGDSVSSNSAAWNWIRQSPSRGLEWLGRTYYRSKWYNDYPVSVKSRITINPDTSKNQVSLQLNPVTPEDTAVYYCTREQGYSSSRYYYYYGMDVWGQGTTVTVSS
VL: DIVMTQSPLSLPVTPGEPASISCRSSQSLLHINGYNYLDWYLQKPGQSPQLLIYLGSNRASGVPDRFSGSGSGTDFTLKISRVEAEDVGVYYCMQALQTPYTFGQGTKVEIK
B6: 37G7 (antibody, human IgG1, V domains shown)
VH: QVQLVESGGGVVQPGRSLRLSCAASGFTFTSYGMHWVRQAPGKGLEWVAVVWYEGSSKFYVDSVKGRFIISRDNSKNTLYLQMNSLRAEDTAVYYCARAYCGGDCYPFDYWGQGTLVTVSS
VL: DIQMTQSPSSLSASVGDRVTITCRASQGISNYLAWYQQKPGKVPKLLIYAASTLQSGVPSRFSGSGSGTDFTLTISSLQPEDVATYYCQKYNSAPWTFGQGTKVEIK
B7: M17 (antibody, human IgG1, V domains shown)
VH: QVQLVESGGGVVQPGRSLRLSCAASGFTFRSYGMHWVRQAPGKGLEWVALIWYDGGDQYYADSVKGRFTISRDSSKSTLYLQMNSLRAEDTAVYYCARAQCGDDCYPFDYWGQGTLVTVSS
VL: DIQMTQSPSSLSASVGDRVTITCRASQGIYNYLAWYQQKPGKVPKLLIYAASTLQSGVPSRFSGSGSGTDFTLTISSLQPEDVATYYCQKYNSDPWTFGQGTKLEIK
B8: 29C4 (antibody, human IgG1, V domains shown)
VH: QVQLVESGGGVVQPGRSLRLSCAASGFTFSNYGMHWVRQAPGKGLEWVAVIWYDGGPKFYADSVKGRFTISRDNSKNTLYLQMNSLRAEDTAVYYCARSYCGGDCYPFDYWGQGDLVTVSS
VL: DIQMTQSPSSLSASVGDRVTITCRASQGISNYLAWYQQKPGKVPKLLIYAASTLQSGVPSRFSGSGSGTDFTLTISSLQPEDVATYYCQKYYSAPWTFGQGTKVEIK
B9: 35B1 (antibody, human IgG1, V domains shown)
VH: QVQLVESGGGVVQPGRSLRLSCAASGFTFTTYGMHWVRQAPGKGLEWVAVVWFEGNSKFYIDSVKGRFIISRDNSKNTLFLQMNSLRAEDTAVYYCARANCGADCYPFDYWGQGTLVTVSS
VL: DIQMTQSPSSLSASVGDRVTITCRASQGISNYLAWYQQKPGKVPKLLIYAASTLQSGVPSRFSGSGSGTDFSLTISSLRPEDVATYYCQKYNSAPWTFGQGTKVEIK
B10: 10C10 (antibody, human IgG1, V domains shown)
VH: QVQLVESGGGVVQPGRSLRLSCATSGFTFSIYGMHWVRQAPGKGLEWVAIIWYDGNKKYYADSVKGRFTISRDNSKNTLYLQMNSLRAEDTAVYYCARDPYTSSLDYWGQGTLVTVSS
VL: DIQLTQSPSFLSASVGDRVTITCRASQGISSYLAWYQQKPGKAPKLLIYAASTLQSGVPSRFSGSGSGTEFTLTISSLQPEDFATYYCQQLNSYPLTFGGGTKLEIK
B11: M33F (antibody, human IgG1, V domains shown)
VH: QVQLQESGPGLVKPSETLSLTCAVSGYSISSGYFWGWIRQPPGKKLEWIGSIYHSGSTYYNPSLKSRVTMSVDTSKNQFSLKLSSVTAADTAVYYCAREGDCSGGICYWYFDLWGRGTLVTVSS
VL: DIQMTQSPSSLSASVGDRVTITCRASQGISNYLAWYQQKPGKVPKLLIYAASTLQSGVPSRFSGSGSGTEVTLTISSLQSEDFAVYYCQQYNKWPLTFGGGTKLEIK
B12: 7F12 (antibody, human IgG1, V domains shown)
VH: QVQLVESGGGVVQPGRSLRLSCAASGFTFSIYGMHWVRQAPGKGLEWVAIIWYDGSDKYYADSVKGRFTISRDNSKNTLYLQMNSLRAEDTAVYYCARDPYTTSLDYWGQGTLVTVSS
VL: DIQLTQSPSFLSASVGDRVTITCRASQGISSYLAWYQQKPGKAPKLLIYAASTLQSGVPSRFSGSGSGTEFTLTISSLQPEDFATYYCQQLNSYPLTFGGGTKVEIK
B13: 19D9 (antibody, human IgG1, V domains shown)
VH: QVQLVESGGGVVQPGRSLRLSCAASGFTFSIYGMHWVRQAPGKGLEWVANIWYDGSKKYYADSVKGRFTISRDNSKNTLYLQMNSLRAEDTSVYYCARDPYTSSLDYWGQGTLVTVSS
VL: DIQLTQSPSFLSASVGDRVTITCRASQGISSYLAWYQQKPGKAPKLLIYTASTLQSGVPSRFSGSGSGTEFTLTISSLQPEDFATYYCQQLNSYPLTFGGGTKLEIK
B14: M1H1 (antibody, human IgG1, V domains shown)
VH: QVQLQESGPGLVKPSETLSLTCAVSGYSISSGYFWGWIRQPPGKKLEWIGSIYHSGSTYYNPSLKSRVTMSVDTSKNQFSLKLSSVTAADTAVYYCAREGDCSGGICYWYFDLWGRGTLVTVSS
VL: DIQMTQSPSSLSASVGDRVTITCRASQGISNYLAWYQQKPGKVPKLLIYAASTLQSGVPSRFSGSGSGTDFTLTISSLQPEDFAVYYCQQYNKWPLTFGGGTKLEIK
B15: 18C2 (antibody, human IgG1, V domains shown)
VH: QVQLVESGGGVVQPGRSLRLSCAASGFTFSIYGMHWVRQAPGMGLEWVAIIRYDGSNKYYADSVKGRFTISRDNSKNTLYLRMNSLRAEDTAVYYCARDPFTSSLDYWGQGTLVTVSS
VL: DIQLTQSPSFLSASVGDRVTITCRASQGISSYLAWYQQKPGKAPKLLIYAASTLQSGVPSRFSGSGSGTEFTLTISSLQPEDFATYYCQQLNSYPLTFGGGTKLEIK
B16: 11F9 (antibody, human IgG1, V domains shown)
VH: EVQLVESGGGLVKPGGSLRLSCAASGFTFSYAWMSWVRQAPGKGLEWVGRIKSKTDGGTTDYAAPVKGRFTISRDDSKNTLYLQLNSLKIEDTAVYYCTTGRIAAAGFDYWAQGTLVTVSS
VL: DAVVTQESALTTSPGETVTLTCRSSTGTVTTSNYANWVQEKPDHLFTGLIAGTNNRAPGVPARFSGSLIGDKAVLTITGAQTEDEAIYFCALWYSNHWVFGGGTKLTVLG
B17: 3H9 (antibody, human IgG1, V domains shown)
VH: EVQLVESGGGLVKPGGSLRLSCAASGFVFSYAWMNWVRQAPGKGLEWVGRIKSKTEGGTTDNAAPVKGRFTISREDSKNTLYLQLNSLKIEDTAVYYCTTGRIAAAGFDYWGQGTLVTVSS
VL: DAVVTQESALTTSPGETVTLTCRSSTGTVTTSNYANWVQEKPDHLFTGLIAGTNNRAPGVPARFSGSLIGDKAALTITGAQTEDEAIYFCALWYSNHWVFGGGTKLTVLG

For the first experiment, the target named is T1, human TMEFF1 extracellular domain …. Put plainly: BLI (Octet Red), antibody on Protein A biosensor, recombinant hTMEFF1 ECD as analyte. The procedure:
The affinity of antibodies to various recombinant TMEFF1 protein was determined on an Octet Red™ instrument. After loading reagents into a 96-well plate, the Octet Red™ with Protein A-conjugated biosensors was programmed as follows: 30 seconds for baseline #1; 120 seconds to immobilize the antibody; 30 seconds for baseline #2; 300 seconds for association of antibody to recombinant TMEFF1; and 300-600 seconds for dissociation of recombinant TMEFF1 from the antibody.
Affinity of thirteen antibodies was calculated using hTMEFF1 ECD recombinant protein by Octet™.
In the case of B1, the Kd was determined as 69 nM.
Still for that read-out and setting: then B2, with 39 nM.
In the case of B3, the Kd was 52 nM.
Consider B4, for which the Kd turned out to be 98 nM.

The next experiment has the same target. Put plainly: BLI (Octet Red), His-tagged TMEFF1 ECD and deletion mutants on anti-Penta-His biosensors, unpurified recombinant antibody. As to the method: TMEFF1 recombinant proteins expressing 3 different deletion mutants, AFS1 (AFollistatin Domain 1), AFS2 (AFollistatin Domain 2) or AFS1&FS2 were used to identify binding domains among different antibodes using an Octet Red instrument with Anti-Penta-His (HIS 1K) biosensors. […] 100 ngs of purified TMEFF1 ECD was run along with unpurified supernatant of transfected CHO cells with the different deletion mutants. HIS 1K biosensors were loaded by submerging the biosensors into wells containing 10 ug/ml of full length TMEFF1 or one of 3 different deletion mutants (AFS1, AFS2 or AFS1&FS2) for 60 seconds. Following the loading step, the biosensors were then dipped for 30 seconds in PBS before immersion for 30 seconds in 200 ul of unpurified recombinant antibodies for 30 seconds. The biosensors were then dipped briefly (30 seconds) in PBS to observe any dissociation. […] Differential binding to the deletion mutants allowed for determination of binding sites on TMEFF1 recombinant protein. For cases where the antibody bound all 3 recombinant proteins, the binding is outside of the deleted domains.
26 of the identified antibodies were checked for epitope domain binding by Octet™ using the hTMEFF1-ECD recombinant deletion mutants (see Table 7, below).
Take B5: the binding result is given as “binds”.
In the case of B6, the binding result is “binds”.
Consider B7, for which the binding result is listed as “binds”.
Turning to B8, the binding result is recorded as “binds”.
Take B9: the binding result is listed as “binds”.
As to B10, the binding result is on record as “binds”.
For the molecule B11, the binding result is “binds”.
In the case of B12, the binding result is “binds”.
In the case of B13, the binding result is “binds”.
For the molecule B14, the binding result is recorded as “binds”.
As to B15, the binding result is listed as “binds”.
Turning to B16, the binding result is listed as “binds”.
On the same count and under the same terms, then B17, with “binds”.

Source of the values: patent publication US20200109194A1 (BLUEFIN BIOMEDICINE, published 2020).
